Results reported in patent US20250276092A1 (Regeneron, published 2025).
Each block holds one binder with its values, some of them ahead of it.

Columns and labels:
[1] = target: T1, monkey CD40 extracellular domain expressed with a C-terminal myc-myc-hexahistidine tag (monkey); assay: SPR 25C, captured mAb
T1 construct: also called mfCD40-MMH; REGN3097
T1 chain: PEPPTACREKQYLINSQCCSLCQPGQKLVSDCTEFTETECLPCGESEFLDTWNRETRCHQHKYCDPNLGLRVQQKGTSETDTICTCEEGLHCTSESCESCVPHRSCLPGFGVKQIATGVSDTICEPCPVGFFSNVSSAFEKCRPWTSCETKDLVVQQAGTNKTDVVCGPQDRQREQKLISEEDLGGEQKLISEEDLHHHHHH
Procedure: (§1) The equilibrium dissociation constants (KD) for anti-CD40 bivalent and bispecific monoclonal antibodies (mAbs) were determined using a real-time surface plasmon resonance (SPR)-based Biacore 4000 biosensor. All binding studies were performed in 10 mM HEPES, 150 mM NaCl, 3 mM EDTA, and 0.05% v/v surfactant Tween-20, pH 7.4 (HBS-ET) running buffer at 25° C. and 37° C. The Biacore CM5 sensor surface was first derivatized by amine coupling with a monoclonal mouse anti-human Fc antibody (REGN2567) to capture anti-CD40 bivalent parental and anti-CD40×CD40 bispecific antibodies. Different concentrations of CD40 reagents, human CD40 extracellular domain expressed with a C-terminal myc-myc-hexahistidine tag (“hCD40-MMH”; REGN3094; SEQ ID NO: 53), monkey CD40 extracellular domain expressed with a C-terminal myc-myc-hexahistidine tag (“mfCD40-MMH”; REGN3097; SEQ ID NO: 54), and mouse CD40 extracellular domain expressed with a C-terminal myc-myc-hexahistidine tag (“mCD40-MMH”; REGN3098; SEQ ID NO: 55), at concentrations ranging from 3.7 nM to 100 nM or 3.3 nM to 90 nM in a series of 3-fold dilutions prepared in HBS-ET running buffer were injected at a flow rate of […] for 4 minutes or […] for 5 minutes. The dissociation of different CD40 reagents bound to anti-CD40 bivalent parental and anti-CD40×CD40 bispecific antibodies was monitored for 10 minutes in HBS-ET running buffer. At the end of each cycle, the anti-CD40 bivalent parental and anti-CD40×CD40 bispecific antibodies capture surface was regenerated using a 12 sec injection of 20 mM H₃PO₄.
(§2) The association rate (ka) and dissociation rate (kd) were determined by fitting the real-time binding sensorgrams to a 1:1 binding model with mass transport limitation using Scrubber 2.0c curve-fitting software. Binding dissociation equilibrium constant (KD) and dissociative half-life (t½) were calculated from the kinetic rates as: KD (M)=kd/kₐ, and t_{1/2} (min)=[ln(2)/(60*kd)].

[2] = target: T2, mouse CD40 extracellular domain expressed with a C-terminal myc-myc-hexahistidine tag (mouse); assay: SPR 25C, captured mAb
T2 construct: also called mCD40-MMH; REGN3098
T2 chain: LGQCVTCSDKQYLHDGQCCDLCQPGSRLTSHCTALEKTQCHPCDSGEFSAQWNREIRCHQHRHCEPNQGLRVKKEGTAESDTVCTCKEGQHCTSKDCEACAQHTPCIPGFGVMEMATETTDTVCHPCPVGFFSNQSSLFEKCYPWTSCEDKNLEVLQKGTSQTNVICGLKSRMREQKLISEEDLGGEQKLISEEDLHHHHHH
Procedure: as §1, §2

[3] = target: T3, human CD40 extracellular domain expressed with a C-terminal myc-myc-hexahistidine tag (human); assay: SPR 25C, captured mAb
T3 construct: also called hCD40-MMH; hCD40-mmH
Procedure: as §1, §2

[4] = target: T2, mouse CD40 extracellular domain …; assay: SPR 37C, captured mAb
Procedure: as §1, §2

[5] = target: T3, human CD40 extracellular domain …; assay: SPR 37C, captured mAb
Procedure: as §1, §2

[6] = target: T4, human CD40 expressed on cells (human, UniProt P25942 21-277); assay: cell-based or functional assay
[7] = target: T4, human CD40 expressed on cells; assay: cell-based or functional assay; remark: listed apart in the source
[8] = target: T4, human CD40 expressed on cells; assay: cell-based or functional assay; remark: listed apart in the source
[9] = target: T3, human CD40 extracellular domain …; assay: ELISA, blocks 40 nM hCD40-mmH binding to coated 9His-hCD40L
Procedure: In the blocking assay, 9His-hCD40L was passively absorbed at a concentration of 5 μg/mL in PBS on a 96-well microtiter plate overnight at 4° C. […] In a separate 96-well microtiter plate, a fixed amount of 40 nM hCD40-mmH was pre-mixed with one of the following antibodies, at concentrations ranging from 977 pM to 1 μM in PBS+0.5% BSA: (1) anti-CD40×CD40 bispecific antibodies (REGN16431, REGN16432, REGN16634, and REGN16335); (2) parental anti-CD40 mAbs (bivalent antibodies comprising 2 fragment antigen-binding [Fab] arms identical to one of anti-CD40 Fab of anti-CD40×CD40 antibodies); (3) anti-CD40×Irrelevant antibodies (bivalent antibodies that incorporate one Fab arm identical to one of anti-CD40 Fab of anti-CD40×CD40 antibodies and another Fab arm specific to an irrelevant antigen); and (4) human IgG4 with Fc mutation isotype control antibodies (REGN7540 and REGN4513). The fixed concentration of hCD40-mmH was selected to be near the concentration (EC₅₀ value) that generated 50% of the maximal binding to the plate-adhered 9His-hCD40L. After one-hour incubation, the antibody-antigen complexes were transferred to the microtiter plate coated with 9His-hCD40L. After one hour incubation at room temperature, the plates were washed, and plate-bound hCD40-mmH protein was detected with horseradish peroxidase (HRP) conjugated goat anti-c-Myc antibody. The plates were then developed using TMB substrate solution (BD Biosciences) according to the manufacturer's recommended procedure and the absorbance at 450 nm (OD₄₅₀) was measured on a SpectraMax i3× plate reader.
Binding data were analyzed using a sigmoidal (four-parameter logistic) dose-response model with GraphPad Prism™ software. […] The percent blocking of tested antibodies at the highest tested concentration ([…]) was calculated based on the formula shown below: […]

T4 sequence (P25942 21-277): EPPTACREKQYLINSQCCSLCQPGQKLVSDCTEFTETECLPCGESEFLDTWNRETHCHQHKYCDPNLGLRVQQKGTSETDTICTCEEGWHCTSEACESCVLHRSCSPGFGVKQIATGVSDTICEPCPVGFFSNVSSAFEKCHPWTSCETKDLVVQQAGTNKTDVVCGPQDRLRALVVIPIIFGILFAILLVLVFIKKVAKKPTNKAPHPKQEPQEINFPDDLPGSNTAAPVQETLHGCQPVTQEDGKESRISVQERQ

- 100 nM Ag Bound (RU) [1]: 63.1 RU
- 100 nM Ag Bound (RU) [2]: 0.2 RU
- 100 nM Ag Bound (RU) [3]: 62 RU
- 100 nM Ag Bound (RU) [4]: 0.2 RU
- 100 nM Ag Bound (RU) [5]: 66.5 RU
- EC50 in the presence of CD40L (potentiation), NFkB-luc Ramos, 500 pM hCD40L [6]: 8.14e-12 M
- Max % activation, NFkB-luc Ramos, no ligand [6]: 8%
- Max % inhibition, NFkB-luc Ramos, 500 pM hCD40L [6]: -130%
- IC50, NFkB-luc Raji, 900 pM hCD40L [7]: 8.95e-12 M
- Max % activation, NFkB-luc Raji, no ligand [7]: 9%
- Max % inhibition, NFkB-luc Raji, 900 pM hCD40L [7]: 67%
- EC50 in the presence of CD40L (potentiation), NFkB-luc THP-1, 10 nM hCD40L [8]: 0.00251 nM
- Max % activation, NFkB-luc THP-1, no ligand [8]: 2%
- Max % inhibition, NFkB-luc THP-1, 10 nM hCD40L [8]: -61%
B1: 30027P2 (antibody, human IgG4 S228P, kappa, V domains shown)
VH: EVQLVESGGGLVQPGGSLRLSCAASGFTFSSYAMNWVRQAPGKGLEWVSIISGTIGKTYYADSVKGRFTISRDNSKNTLYLQMNSLRGEDTAVYYCAKDTERDITGSPFDYWGQGTLVTVSS
VL: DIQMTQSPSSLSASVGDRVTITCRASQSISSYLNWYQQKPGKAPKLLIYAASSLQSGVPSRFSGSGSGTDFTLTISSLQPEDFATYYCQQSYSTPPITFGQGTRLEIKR
notes: Parental bivalent anti-CD40 mAb; also called H4sH30027P2

- 100 nM Ag Bound (RU) [1]: 10.3 RU
- 100 nM Ag Bound (RU) [2]: 0.4 RU
- 100 nM Ag Bound (RU) [3]: 99 RU
- 100 nM Ag Bound (RU) [4]: 1.6 RU
- 100 nM Ag Bound (RU) [5]: 105 RU
- IC50, NFkB-luc Ramos, 500 pM hCD40L [6]: 3.09e-11 M
- Max % activation, NFkB-luc Ramos, no ligand [6]: 13%
- Max % inhibition, NFkB-luc Ramos, 500 pM hCD40L [6]: 88%
- IC50, NFkB-luc Raji, 900 pM hCD40L [7]: 6.05e-11 M
- Max % activation, NFkB-luc Raji, no ligand [7]: 15%
- Max % inhibition, NFkB-luc Raji, 900 pM hCD40L [7]: 92%
- IC50, NFkB-luc THP-1, 10 nM hCD40L [8]: 0.276 nM
- Max % activation, NFkB-luc THP-1, no ligand [8]: 5%
- Max % inhibition, NFkB-luc THP-1, 10 nM hCD40L [8]: 99%
- % Blocking at highest mAb concentration [9]: 94%
B2: 21519P2 (antibody, human IgG4 S228P, kappa, V domains shown)
VH: QLQLQESGPGLVRPSETLSLTCSVSGASMNTNNYYWGWIRQPPGKGLEWIGSGYYNGNTYYNPSLKSRVTISVDTSKNQFSLKLNSVTAADTAVYYCARQTPPRIIGSPNIWGQGTMVTVSS
VL: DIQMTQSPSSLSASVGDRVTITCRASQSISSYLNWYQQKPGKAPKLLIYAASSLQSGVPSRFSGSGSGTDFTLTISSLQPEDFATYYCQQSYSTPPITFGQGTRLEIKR
notes: Parental bivalent anti-CD40 mAb; also called H4sH21519P2
